Columns and labels:
[1] = molecular target: T1, Test peptide LMSHNARGAEDDVVRGGGGK linked to a DNA oligo
T1 chain: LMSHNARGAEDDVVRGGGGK

M15-LAAR = molecular target: T2, M15-LAAR
T2 chain: LAAR

[2] = molecular target: Polypeptides with M15-L-labeled P1 residues A, I, L, M, Q, V
[3] = molecular target: M15-L-P1-AR peptides with D or E in the P1 position
M19-AAAR = molecular target: T3, M19-AAAR
T3 chain: AAAR

M19-LAAR = molecular target: T4, M19-LAAR
T4 chain: LAAR

B1: Unmodified dipeptidyl aminopeptidase DAP BII (SEQ ID NO: 13) (protein)
chain: GEGMWVPQQLPEIAGPLKKAGLKLSPQQISDLTGDPMGAVVALGGCTASFVSPNGLVVTNHHCAYGAIQLNSTAENNLIKNGFNAPTTADEVSAGPNARVFVLDEITDVTKDAKAAIAAAGDDALARTKALEAFEKKLIADCEAEAGFRCRLYSFSGGNTYRLFKNLEIKDVRLAYAPPGSVGKFGGDIDNWMWPRHTGDFAFYRAYVGKDGKPAAFSKDNVPYQPKHWLKFADQPLGAGDFVMVAGYPGSTNRYALAAEFDNTAQWTYPTIARHYKNQIAMVEAAGKQNADIQVKYAATMAGWNNTSKNYDGQLEGFKRIDAAGQKLREEAAVLGWLKGQGAKGQPALDAHAKLLDLLEQSKATRDRDLTLALFNNTAMLGSATQLYRLSIEREKPNAERESGYQERDLPAIEGGLKQLERRYVAAMDRQLQEYWLNEYIKLPADQRVAAVDAWLGGNDAAAVKRALDRLAGTKLGSTEERLKWFAADRKAFEASNDPAIQYAVAVMPTLLKLEQERKTRAGENLAARPVYLQALADYKKSQGEFVYPDANLSLRITFGNVMGYAPKDGMEYTPFTTLEGVVAKETGQDPFDSPKALLDAVAAKRYGGLEDKRIGSVPVNYLSDLDITGGNSGSPVLDAHGKLVGLAFDGNWESVSSNWVFDPKMTRMIAVDGRYLRWIMQEVYPAPQLLKEMNVGK
B1 was tested, and the “cleavage of a peptide-DNA fusion, gel bands at 0, 5, 30, 45, 60 min” value [1] was “would continue gradually cleaving the polypeptide, creating multiple bands during the cleavage reaction (FIG. 10)”.

B2: M15-L_Z001 modified cleavase (Thermomonas hydrothermalis S46 DPP scaffold) (protein)
chain: MHKTRLVAALAAALATLAPAAWADEGMWVPQQLPEIAGALKKAGLKLDPKQLSDLTGDPMGAVVSLGGCTGSFVSPQGLVATNHHCAYGAIQLNSTPEKNLIKDGFNAPTQADELSAGPNARIYVLEGITDVTAQAKAAMAAAGNDPVARANALEAFEKKITSDCEAEPGYRCRVYSFMGGITYRLFKNLEIKDVRLVYAPPSSVGKFGGDIDMGMWPTHTGDFSFYRAYVGKDGKPAPYSKDNVPYRPKHWLKIADTPLGEGDFVMVAGYPGRTDRYALVAEFENTQNWLYPAISKAYKDQIALVEAAAKDNPEIAVKYAAALAGWNRTSKNFDGQLEGFKRNDVLAIKRREEAAVLEWLRARGKAGTPALEAHAALVKLVADTARTQERDLVLGSFNRTGIIGVAVNLYRLAIERQKPDAEREPGYQQRDLPVIEGSLKQMERRYVPAMDRQLRAYWLDRYVALPAAQHVAAVDAWLGGSDKAAAEAALARLDQSRLGSLEERLKWFNADRAAFEASTDPAIQYAVAVMPTLLAMEQQAKTRYGVALEARPRYLQAVVDYKKSKGQAVYPDANSTLRITYGHVKGYTGLNGKVYTPFTTLEEVAAKETGVEPFDNPKALLEAVAAKRYAGLADARLGTVPVNFLADLDITGGNSGSPVLDANGRLVGLAFAGTLESVASNWVFDPVLTRMISVDQRYMRWIMQEVMPAPQLLEELGVPPRQ
For B2, the “cleavage efficiency, time course 5, 10, 20, 30 and 60 minutes” value (M15-LAAR) was “the M15-L_Z001 cleavase provided better specificity towards the M15-labeled polypeptide” and the cleavage [2] was “provided 100% cleavage”.

B3: M15-L_Z002 modified cleavase (Thermomonas hydrothermalis S46 DPP scaffold) (protein)
chain: MHKTRLVAALAAALATLAPAAWADEGMWVPQQLPEIAGALKKAGLKLDPKQLSDLTGDPMGAVVSLGGCTGSFVSPQGLVATNHHCAYGAIQLNSTPEKNLIKDGFNAPTQADELSAGPNARIYVLEGITDVTAQAKAAMAAAGNDPVARANALEAFEKKITSDCEAEPGYRCRVYSFMGGITYRLFKNLEIKDVRLVYAPPSSVGKFGGDIDMGMWPTHTGDFSFYRAYVGKDGKPAPYSKDNVPYRPKHWLKIADTPLGEGDFVMVAGYPGRTDRYALVAEFENTQNWLYPAISKAYKDQIALVEAAAKDNPEIAVKYAAALAGWNRTSKNFDGQLEGFKRNDVLAIKRREEAAVLEWLRARGKAGTPALEAHAALVKLVADTARTQERDLVLGSFNRTGIIGVAVNLYRLAIERQKPDAEREPGYQQRDLPVIEGSLKQMERRYVPAMDRQLRAYWLDRYVALPAAQHVAAVDAWLGGSDKAAAEAALARLDQSRLGSLEERLKWFNADRAAFEASTDPAIQYAVAVMPTLLAMEQQAKTRYGVALEARPRYLQAVVDYKKSKGQAVYPDANSTLRITYGHVKGYTGLNGKVYTPFTTLEEVAAKETGVEPFDNPKALLEAVAAKRYAGLADARLGTVPVNFLADLDITGGNSGSPVLDANGRLVGLAFAGTLESVASNWVFDPVLTRMISVDQRYMRWIMQEVMPAPQLLEELGVPPRQ
For B3, the cleavage profile [3] was “M15-L_Z002, having specificity towards D and E in the P1 position”.

B4: P1 cutter 1 (Thermomonas hydrothermalis S46 DPP scaffold) (protein)
chain: MHKTRLVAALAAALATLAPAAWADEGMWVPQQLPEIAGALKKAGLKLDPKQLSDLTGDPMGAVVSLGGCTGSFVSPQGLVATNHHCAYGAIQLNSTPEKNLIKDGFNAPTQADELSAGPNARIYVLEGITDVTAQAKAAMAAAGNDPVARANALEAFEKKITSDCEAEPGYRCRVYSFMGGITYRLFKNLEIKDVRLVYAPPSSVGKFGGDIDTMMWPKHTGDFSFYRAYVGKDGKPAPYSKDNVPYRPKHWLKIADTPLGEGDFVMVAGYPGRTDRYALVAEFENTQNWLYPAISKAYKDQIALVEAAAKDNPEIAVKYAAALAGWNYTSKNFDGQLEGFKRNDVLAIKRREEAAVLEWLRARGKAGTPALEAHAALVKLVADTARTQERDLVLGSFNRTGIIGVAVNLYRLAIERQKPDAEREPGYQQRDLPVIEGSLKQMERRYVPAMDRQLRAYWLDRYVALPAAQHVAAVDAWLGGSDKAAAEAALARLDQSRLGSLEERLKWFNADRAAFEASTDPAIQYAVAVMPTLLAMEQQAKTRYGVALEARPRYLQAVVDYKKSKGQAVYPDANSTLRITYGHVKGYTGLNGKVYTPFTTLEEVAAKETGVEPFDNPKALLEAVAAKRYAGLADARLGTVPVNFLADLDITGGNSGSPVLDANGRLVGLAFDGTLESVASNWVFDPVLTRMISVDQRYMRWIMQEVMPAPQLLEELGVPPRQ
B4 was tested, and the “cleavage, product identified by LC-MS” value (M19-AAAR) was “the observed mass of the cleaved product was 230.2 Da, which matched well with the expected mass for the M19-A (M+H) part (231.2 Da)”.

B5: M19_053 cleavase clone (Thermomonas hydrothermalis S46 DPP scaffold) (protein)
chain: MHKTRLVAALAAALATLAPAAWADEGMWVPQQLPEIAGALKKAGLKLDPKQLSDLTGDPMGAVVSLGGCTGSFVSPQGLVATNHHCAYGAIQLNSTPEKNLIKDGFNAPTQADELSAGPNARIYVLEGITDVTAQAKAAMAAAGNDPVARANALEAFEKKITSDCEAEPGYRCRVYSFMGGITYRLFKNLEIKDVRLVYAPPSSVGKFGGDIDMGMWPTHTGDFSFYRAYVGKDGKPAPYSKDNVPYRPKHWLKIADTPLGEGDFVMVAGYPGRTDRYALVAEFENTQNWLYPAISKAYKDQIALVEAAAKDNPEIAVKYAAALAGWNPTSKNFDGQLEGFKRNDVLAIKRREEAAVLEWLRARGKAGTPALEAHAALVKLVADTARTQERDLVLGSFNRTGIIGVAVNLYRLAIERQKPDAEREPGYQQRDLPVIEGSLKQMERRYVPAMDRQLRAYWLDRYVALPAAQHVAAVDAWLGGSDKAAAEAALARLDQSRLGSLEERLKWFNADRAAFEASTDPAIQYAVAVMPTLLAMEQQAKTRYGVALEARPRYLQAVVDYKKSKGQAVYPDANSTLRITYGHVKGYTGLNGKVYTPFTTLEEVAAKETGVEPFDNPKALLEAVAAKRYAGLADARLGTVPVNFLADLDITGGNSGSPVLDANGRLVGLAFAGTLESVASNWVFDPVLTRMISVDQRYMRWIMQEVMPAPQLLEELGVPPRQ
B5 was tested, and the “cleavage efficiency, time course 5, 10, 20, 30 and 60 minutes” value (M19-LAAR) was “the newly selected cleavase clone M19_053 provided better specificity towards the M19-labeled polypeptide”.

Source: patent US20230257727
